The DeepSol protein solubility set

assay: soluble on expression in E. coli; label from the status in PepcDB or PDB records

| Sequence | soluble on expression in E. coli |
| --- | --- |
| KDWTQYVNPLMGSQSTFELSTGNTYPAIARPWGMNFWTPQTGKMGDGWQYTYTANKIRGFKQTHQPSPWINDYGQFSIMPIVGQPVFDEEKRASWFAHKGEVATPYYYKVYLAEHDIVTEMTPTERAVLFRFTFPENDHSYVVVDAFDKGSYIKIIPEENKIIGYTTRNSGGVPENFKNYFIIEFDKPFTYKATVENGNLQENVAEQTTDHAGAIIGFKTRKGEQVNARIASSFISFEQAAANMNELGKDNIEQLAQKGKDAWNQVLGKIEVEGGNLDQYRTFYSCLYRSLLFPRKFYELDANGQPIHYSPYNGQVLPGYMFTDTGFWDTFRCLFPLLNLMYPSVNKEMQEGLINTYLESGFFPEWASPGHRGCMVGNNSASILVDAYMKGVKVDDIKTLYEGLIHGTENVHPEVSSTGRLGYEYYNKLGYVPYDVKINENAARTLEYAYDDWCIYRLAKELKRPKKEISLFAKRAMNYKNLFDKESKLMRGRNEDGTFQSPFSPLKWGDAFTEGNSWHYTWSVFHDPQGLIDLMGGKEMFVTMMDSVFAVPPIFDDSYYGQVIHEIREMTVMNMGNYAHGNQPIQHMIYLYDYAGQPWKAQYWLRQVMDRMYTPGPDGYCGDEDNGQTSAWYVFSALGFYPVCPGTDEYVMGTPLFKKATLHFENGNSLVIDAPNNSTENFYIDSMSFNGADHTKNYLRHEDLFKGGTIKVDMSNRPNLNRGTKEEDMPYSFSKELEHHHHHH | soluble |
| KFDESALVPEDQFLAQHPGPATIRVSKPNENDGQFMEITVQSLSENVGSLKEKIAGEIQIPANKQKLSGKAGFLKDNMSLAHYNVGAGEILTLSLRER | soluble |
| KGDDTYYIIFTSGTTGKPKGVQISHDNLLSFTNWMINAEAFATPHRPQMLAQPPYSFDLSVMYWAPTLALGGTLFALPKEITADFKQLFTTINQLPIGVWTSTPSFVDMAMLSDDFNAQQLPHLTHFYFDGEELTVKTAKKLRQRFPQARIVNAYGPTEATVALSALAVTDKML | not soluble |
| KKPEGKPDQKFDQKQELGRVIHLSNLPHSGYSDSAVLKLAEPYGKIKNYILMRMKSQAFIEMETREDAMAMVDHCLKKALWFQGRCVKVDLSEKYKKLV | soluble |
| KKQITVLDLHPGAGKTRRILPQIIKEAINRRLRTAVLAPTRVVAAEMAEALRGLPIRYQTSAVAREHNGNEIVDVMCHATLTHRLMSPHRVPNYNLFVMDEAHFTDPASIAARGYISTRVELGEAAAIFMTATPPGTSDPFPESNAPISDLQTEIPDRAWNSGYEWITEYIGKTVWFVPSVKMGNEIALCLQRAGKKVIQLNRKSYETEYPKCKNDDWDFVVTTDISEMGANFKASRVIDSRKSVKPTIITEGEGRVILGEPSAVTAASAAQRRGRTGRNPSQAGDEYCYGGHTNEDDSNCAHWTEARIMLDNINMPNGLIAQFYQPEREKVYTMDGEYRLRGEERKNFLELLRTADLPVWLAYKVAAAGVSYHDRRWCFDGPRTNTILEDNNEVEVITKLGERKILRPRWIDARVYSDHQALKSFKDFASGKR | soluble |
| KLLEHVRNILPPNITCLYIRQAEALGLGHAVLCARAAIGDEPFAVILADDLIDAPKGALKQMVEVYGRSGNSILGVETVEASQTGSYGIVETEQLKQFQRITGIVEKPKPEDAPSNLAVVGRYILTPRIFDLLTNLPRGAGNEIQLTDGIAKLLDHEFVLAHPFEGTRYDCGSKLGYLEATVAYGLKHPETGEPFRRLLEKYRTE | not soluble |
| KMGKTPKTEILSFEQYQVTPYLSGLLELDPDTEVFELERLRIADDMPLMFERSYIPAQPFQGLSIADLKRKALYDIFAKDYQETIRLAEEEFYASIALDYEAGLLGIKKGDPVLHIIRKTYNDKNILIELTFSIARADQFRYRVQHHPNG | not soluble |
| KNASVITVGNEILKGRTVNTNAAFIGNFLTYHGYQVRRGFVVMDDLDEIGWAFRVALEVSDLVVSSGGLGPTFDDMTVEGFAKCIGQDLRIDEDALAMIKKKYGQADLTPQRLKMAKIPPSCRPIENPVGTAPGLICAVGGKKVIILPGVPKEMEALLKAMEKDIIIPD | soluble |
| KPTAEVVPVNRGFHFQTNKVPSESDVFKHNYDLTFSLNFTNKSNDIYGTGWLFDWKGDEKALGIDGSFVPSITSNIDNSLLKDDQFTVYLATNLHVADALRNDQDYEPYKKDQNKQDFTENTKTEFFSLGKYLEGEQLKQYISKEENQSANQTDKALVSIQASNIPKTAYTATDFVDMNSYSYNNITTSLPGNYADFAVI | not soluble |
| KQAQVDYLALPGDAKLDTRSVDYKCENGRKFTVQYLNKGDNSLAVVPVSDNSTLVFSNVISASGAKYAAGQYIWWTKGEEATLYGDWKGGEPTDGVACKER | soluble |
| KQWVWSAESPIETNILKLLPKNQQNPVAEQAFESVSASMSDKVIFVITAPDKNALFAAAAEFDKGLRQSNHFRDVVGKISPQEQQAWASYYFKHRFQLLTPEQRERLSQNPEQQVQHVIQSLYNPFSGVTGQELQSDPFLLFRDYLSQVTQQSSSFRLDNGYLSVEKDGAQYLLITAELKESPYSLTGQLAVPDIQALEQSVAQKYGAEVAHTGVLFYADFGTQSAKSE | soluble |
| KRAVDARTVGRMIRMSGCPDESASAKAVDWFVLMFMLRGIPFVDLAHLRRSNLDKGVLTYCRHKTGQEVSISVPREAMEIINRRMVENCHPSYLLPILGQPRTRKRHTKKALTPYQEYQYALRNLNRRLERVSVDLRLGGRLSSYTARHTWATIAFHQETPVGVISRGLGHSSVKVTETYLKPFGDREVDRTNRKILNYVLNAV | not soluble |
| KTDDPRFKIYKLAYSAFLSRITVKDVIWNKDKGIKLMDGYYWDFINDPHLLVAGGTGGGKTVLLRSILRCLAEIGVCDICDPKRADFVTMSDLSAFEGRIAFEKADIIEKFENAVTIMFARYDFVRNEMKRLGHKDMKKFYDYGLEPYFFVCDEYNALMSSLSYQEREIVDNAFTQYILLGRQVGCNAIIAMQKPSA | not soluble |
| KTDPRSMNSRVFIGNLNTLVVKKSDVEAIFSKYGKIVGCSVHKGFAFVQYVNERNARAAVAGEDGRMIAGQVLDINLAAEPKVNR | soluble |
| KVMMPKVEERDDSEAPKAFFSEYEICNPALDGKSVREVALLLKRPFVITRVWHNGKVEIPTSDMILYFGDHILAVSGEEDTSQLEILFGKREMKDWNRPDIDWNSVDKQLVSRRLVITRPKLNGVRLGMLKIRNLYGVNISRVDRAGVELLPDRDLRLQLGDRLTVVGEGKAVERVAEILGDEVKQLDNPH | not soluble |
| LALLYEVTCLNKPGLVDPVDAGAHQDMDVFTFLESSVVLTPYFETFVQAGTELRHLPIEATFRTIRQVGLEAERAMFEATEGINTHKGAIFSLGIFLAVCGRLMIWETPCTLQLFQQTLQTMTQDLLADFENLATNELEKLTWGERLFVQHGLTGIRGEAQQGYPAVFEQGVPYYQKHQGTQQQKLIDTLLYLSLYVEDTNLIKRSQNVQIFEVYQPLIQEYFALGGTQTLRGTLCLERLNHLFKEKNWSIGGSADALILVV | not soluble |
| LALVATGNDTTTKPDLYYLKNSEAINSLALLPPPPAVGSIAFLNDQAMYEQGRLLRNTERGKLAAEDANLSSGGVANAFSGAFGSPITEKDAPALHKLLTNMIEDAGDLATRSAKDHYMRIRPFAFYGVSTCNTTEQDKLSKNGSYPSGHTSIGWATALVLAEINPQRQNEILKRGYELGQSRVICGYHWQSDVDAARVVGSAVVATLHTNPAFQQQLQKAKAEFAQHQKK | soluble |
| LDGVLVPESGILVSVGQDVDSVNDYASALGTIPAGVTNYVGIVNLDGLNSDADAGAGRNNIAELANAYPTSALVVGVSMNGEVDAVASGRYNANIDTLLNTLAGYDRPVYLRWAYEVDGPWNGHSPSGIVTSFQYVHDRIIALGHQAKISLVWQVASYCPTPGGQLDQWWPGSEYVDWVGLSYFAPQDCNWDRVNEAAQFARSKGKPLFLNESTPQRYQVADLTYSADPAKGTNRQSKTSQQLWDEWFAPYFQFMSDNSDIVKGFTYINADWDSQWRWAAPYNEGYWGDSRVQANALIKSNWQQEIAKGQYINHSETLFETLGYGSTHHHHHH | soluble |
| LENPLYYLHNFRQVLNWLQLRYADVLSADEQRFILDFAQLAEPSQALLVRMVMRKGRHFRLSKLSYPEIGDSAAALEPLLALGWVDEQAPLCLEELFGLLQKAEILQCFNGLAAKARKDQWLEELTQQGLAPQAFAQWCPALPDRLLSLTLMPLCDRLRLMFFGNLYQDWSEFVLADLGIYSYEKVEISADARGLRSREDVDGFLYLHECQEAFEAGAELPEVLAHIARFQTLNPWLEKRRAKLLFQLGQQCERLAQWALARQIYQECAYPGARSRLIRVLERSAQYQAALALAEQAAAAPESAAEAQHLLRIMPRLRRKLGGPPAPRAANREVQRLDLCLARDADGLAVELHVQAHLHQPQAPVHYVENSLINSLFGLLCWPAIFAPLPGAFFHPFQRGPVDLFSEDFHQRRSELFQACLAELDDGRYRQSIRQRFVAKWGLQSPFVFWGALSEELLDQALDCLPAEHLKHWFQRLLLDIKANRAGMPDLIQFWPEQKRYRMIEVKGPGDRLQDNQLRWLDFCQEHRMPVAVCYVQWQ | not soluble |
| LGKQIMFDAFRFKCPPQELNAAIIKQLRGLLDLGIGEIKARAEKQEALLEYPIFFNDWQDNKKIIRNLLDRISADQLPLEIYRYTTFEDGSVLEEQLTLKEANEALTALQRIELEQDMLSQLEAGHISSRDEYVPDDEDV | not soluble |
| LKDSYVEYTLLYDTIASRISIDEVEAKDGKLRLMKNVWWEYDKLPHMLIAGGTGGGKTYFILTLIEALLHTDSKLYILDPKNADLADLGSVMANVYYRKEDLLSCIETFYEEMMKRSEEMKQMKNYKTGKNYAYLGLPAHFLIFDEYVAFMEMLGTKENTAVMNKLKQIVMLGRQAGFFLILACQRPDA | not soluble |
| LKQRRKIANEVKIKNTLLEYAQQITQMGTFEYNVFTNTLFWSNEMYNIFELDRSVIPEINFIDSLIKEESEITHNRRKKNFQPGASYSDELKIRTVNGNEKVLISNGYVVNEENGLVVHGAIIDIT | not soluble |
| LLEIDFAELTLEEIIGIGGFGKVYRAFWIGDEVAVKAARHDPDEDISQTIENVRQEAKLFAMLKHPNIIALRGVCLKEPNLCLVMEFARGGPLNRVLSGKRIPPDILVNWAVQIARGMNYLHDEAIVPIIHRDLKSSNILILQKVENGDLSNKILKITDFGLAREWHRTTKMSAAGAYAWMAPEVIRASMFSKGSDVWSYGVLLWELLTGEVPFRGIDGLAVAYGVAMNKLALPIPSTCPEPFAKLMEDCWNPDPHSRPSFTNILDQLTTI | soluble |
| LLPLRGLLVFPTMVLHLDVGRKKSVEALEHAMIDDHYILLAAQKEISIDEPIETDIYQIGTYAKVKQMLKLPNGTIRVLVEGLQRAKIEKYVANDAFIEVEMCTLPEDDEDNATENKALMRNVLQLFEQYIKLSKKVSAETLASVSDIAEPGRLADVIASHLPLKIVEKQQLLETTSVKERLLQV | soluble |
| LLQHAHNPVNWYSWSPEAFSKAKSEDKPIFLSIGYSTCHWCHVMERESFEDDDVAEVLNRSFVSIKVDREERPDIDEIYMNVCTAITGSGGWPLTIVMTPEQKPFFAGTYIPKNNRMGMQGLISLLENIEYQWKENQNELVEIGDKIVSSLNKDRKT | not soluble |
